According to patent US20240327535A1 (EISAI R AND D MANAGEMENT, published 2024):

T1: extracellular domain of human BCMA (human, UniProt Q02223 1-54)
T1 construct: amine-linked to Octet AR2G tips; also called hsBCMA; BCMA (human)
T1 sequence: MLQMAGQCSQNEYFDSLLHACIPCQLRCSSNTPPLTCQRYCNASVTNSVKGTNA

B1: AB200-R1H26-R2Vk1 (Fab, V domains shown)
VH: QVQLVQSGAEVKKPGSSVKVSCKASGGSFSNYWMHWVRQAPGQGLEWMGATYRIHSDTFYNQKFKGRVTITADKSTSTAYMELSSLRSEDTAVYYCARGAIYHGYDVLDNWGQGTLVTVSS
VL: DIQMTQSPSSLSASVGDRVTITCRASQSISSYLNWYQQKPGKAPKLLIYAASSLQSGVPSRFSGSGSGTDFTLTISSLQPEDFATYYCQQFRKLPWSFGQGTKLEIKR
B2: AB200-R1H26-R2Vk3 (Fab, V domains shown)
VH: QVQLVQSGAEVKKPGSSVKVSCKASGGSFSNYWMHWVRQAPGQGLEWMGATYRIHSDTFYNQKFKGRVTITADKSTSTAYMELSSLRSEDTAVYYCARGAIYHGYDVLDNWGQGTLVTVSS
VL: DIQMTQSPSSLSASVGDRVTITCRASQSISSYLNWYQQKPGKAPKLLIYATSNLQSGVPSRFSGSGSGTDFTLTISSLQPEDFATYYCQQFRKLPWSFGQGTKLEIKR
B3: AB200-R1H26-R2Vk4 (Fab, V domains shown)
VH: QVQLVQSGAEVKKPGSSVKVSCKASGGSFSNYWMHWVRQAPGQGLEWMGATYRIHSDTFYNQKFKGRVTITADKSTSTAYMELSSLRSEDTAVYYCARGAIYHGYDVLDNWGQGTLVTVSS
VL: DIQMTQSPSSLSASVGDRVTITCRASQSISSYLNWYQQKPGKAPKLLIYATSNIQSGVPSRFSGSGSGTDFTLTISSLQPEDFATYYCQQFRKLPWSFGQGTKLEIKR
B4: AB200-R1H26-R2Vk5 (Fab, V domains shown)
VH: QVQLVQSGAEVKKPGSSVKVSCKASGGSFSNYWMHWVRQAPGQGLEWMGATYRIHSDTFYNQKFKGRVTITADKSTSTAYMELSSLRSEDTAVYYCARGAIYHGYDVLDNWGQGTLVTVSS
VL: DIQMTQSPSSLSASVGDRVTITCRASQSISSYLNWYQQKPGKAPKLLIYATSNLQIGVPSRFSGSGSGTDFTLTISSLQPEDFATYYCQQFRKLPWSFGQGTKLEIKR
B5: AB200-R1H26-R2Vk6 (Fab, V domains shown)
VH: QVQLVQSGAEVKKPGSSVKVSCKASGGSFSNYWMHWVRQAPGQGLEWMGATYRIHSDTFYNQKFKGRVTITADKSTSTAYMELSSLRSEDTAVYYCARGAIYHGYDVLDNWGQGTLVTVSS
VL: DIQMTQSPSSLSASVGDRVTITCRASQSISSYINWYQQKPGKAPKLLIYATSNLQSGVPSRFSGSGSGTDFTLTISSLQPEDFATYYCQQFRKLPWSFGQGTKLEIKR
B6: AB200-R1H26-R2Vk7 (Fab, V domains shown)
VH: QVQLVQSGAEVKKPGSSVKVSCKASGGSFSNYWMHWVRQAPGQGLEWMGATYRIHSDTFYNQKFKGRVTITADKSTSTAYMELSSLRSEDTAVYYCARGAIYHGYDVLDNWGQGTLVTVSS
VL: DIQMTQSPSSLSASVGDRVTITCRASQSISSYINWYQQKPGKAPKLLIYATSNIQSGVPSRFSGSGSGTDFTLTISSLQPEDFATYYCQQFRKLPWSFGQGTKLEIKR
B7: AB200-R1H26-R2Vk8 (Fab, V domains shown)
VH: QVQLVQSGAEVKKPGSSVKVSCKASGGSFSNYWMHWVRQAPGQGLEWMGATYRIHSDTFYNQKFKGRVTITADKSTSTAYMELSSLRSEDTAVYYCARGAIYHGYDVLDNWGQGTLVTVSS
VL: DIQMTQSPSSLSASVGDRVTITCRASQSISSYINWYQQKPGKAPKLLIYATSNLQIGVPSRFSGSGSGTDFTLTISSLQPEDFATYYCQQFRKLPWSFGQGTKLEIKR
B8: AB200-R1H26-R2Vk9 (Fab, V domains shown)
VH: QVQLVQSGAEVKKPGSSVKVSCKASGGSFSNYWMHWVRQAPGQGLEWMGATYRIHSDTFYNQKFKGRVTITADKSTSTAYMELSSLRSEDTAVYYCARGAIYHGYDVLDNWGQGTLVTVSS
VL: DIQMTQSPSSLSASVGDRVTITCRASQSISSYLNWYQQKPGKAPKLLIYAASSLQSGVPSRFSGSGSGTDFTLTISSLQPEDFATYYCQQYRRLPWSFGQGTKLEIKR
B9: AB200-R1H26-R2Vk10 (Fab, V domains shown)
VH: QVQLVQSGAEVKKPGSSVKVSCKASGGSFSNYWMHWVRQAPGQGLEWMGATYRIHSDTFYNQKFKGRVTITADKSTSTAYMELSSLRSEDTAVYYCARGAIYHGYDVLDNWGQGTLVTVSS
VL: DIQMTQSPSSLSASVGDRVTITCRASQSISSYLNWYQQKPGKAPKLLIYAASSLQSGVPSRFSGSGSGTDFTLTISSLQPEDFATYYCQQYRRIPWTFGQGTKLEIKR
B10: AB200-R1H26-R2Vk11 (Fab, V domains shown)
VH: QVQLVQSGAEVKKPGSSVKVSCKASGGSFSNYWMHWVRQAPGQGLEWMGATYRIHSDTFYNQKFKGRVTITADKSTSTAYMELSSLRSEDTAVYYCARGAIYHGYDVLDNWGQGTLVTVSS
VL: DIQMTQSPSSLSASVGDRVTITCRASQSISSYLNWYQQKPGKAPKLLIYAASSLQSGVPSRFSGSGSGTDFTLTISSLQPEDFATYYCQQFRRLPWTFGQGTKLEIKR
B11: AB200-R1H26-R2Vk12 (Fab, V domains shown)
VH: QVQLVQSGAEVKKPGSSVKVSCKASGGSFSNYWMHWVRQAPGQGLEWMGATYRIHSDTFYNQKFKGRVTITADKSTSTAYMELSSLRSEDTAVYYCARGAIYHGYDVLDNWGQGTLVTVSS
VL: DIQMTQSPSSLSASVGDRVTITCRASQSISSYLNWYQQKPGKAPKLLIYAASSLQSGVPSRFSGSGSGTDFTLTISSLQPEDFATYYCQQYRKIPWSFGQGTKLEIKR
B12: AB200-R1H26-R2Vk13 (Fab, V domains shown)
VH: QVQLVQSGAEVKKPGSSVKVSCKASGGSFSNYWMHWVRQAPGQGLEWMGATYRIHSDTFYNQKFKGRVTITADKSTSTAYMELSSLRSEDTAVYYCARGAIYHGYDVLDNWGQGTLVTVSS
VL: DIQMTQSPSSLSASVGDRVTITCRASQSISSYLNWYQQKPGKAPKLLIYAASSLQSGVPSRFSGSGSGTDFTLTISSLQPEDFATYYCQQFRKIPWTFGQGTKLEIKR
B13: AB200-R1H26-R2Vk19 (Fab, V domains shown)
VH: QVQLVQSGAEVKKPGSSVKVSCKASGGSFSNYWMHWVRQAPGQGLEWMGATYRIHSDTFYNQKFKGRVTITADKSTSTAYMELSSLRSEDTAVYYCARGAIYHGYDVLDNWGQGTLVTVSS
VL: DIQMTQSPSSLSASVGDRVTITCRASQSISSYLNWYQQKPGKAPKLLIYATSNLQSGVPSRFSGSGSGTDFTLTISSLQPEDFATYYCQQYRRLPWSFGQGTKLEIKR
B14: AB200-R1H26-R2Vk20 (Fab, V domains shown)
VH: QVQLVQSGAEVKKPGSSVKVSCKASGGSFSNYWMHWVRQAPGQGLEWMGATYRIHSDTFYNQKFKGRVTITADKSTSTAYMELSSLRSEDTAVYYCARGAIYHGYDVLDNWGQGTLVTVSS
VL: DIQMTQSPSSLSASVGDRVTITCRASQSISSYLNWYQQKPGKAPKLLIYATSNLQSGVPSRFSGSGSGTDFTLTISSLQPEDFATYYCQQYRRIPWTFGQGTKLEIKR
B15: AB200-R1H26-R2Vk21 (Fab, V domains shown)
VH: QVQLVQSGAEVKKPGSSVKVSCKASGGSFSNYWMHWVRQAPGQGLEWMGATYRIHSDTFYNQKFKGRVTITADKSTSTAYMELSSLRSEDTAVYYCARGAIYHGYDVLDNWGQGTLVTVSS
VL: DIQMTQSPSSLSASVGDRVTITCRASQSISSYLNWYQQKPGKAPKLLIYATSNLQSGVPSRFSGSGSGTDFTLTISSLQPEDFATYYCQQFRRLPWTFGQGTKLEIKR
B16: AB200-R1H26-R2Vk22 (Fab, V domains shown)
VH: QVQLVQSGAEVKKPGSSVKVSCKASGGSFSNYWMHWVRQAPGQGLEWMGATYRIHSDTFYNQKFKGRVTITADKSTSTAYMELSSLRSEDTAVYYCARGAIYHGYDVLDNWGQGTLVTVSS
VL: DIQMTQSPSSLSASVGDRVTITCRASQSISSYLNWYQQKPGKAPKLLIYATSNLQSGVPSRFSGSGSGTDFTLTISSLQPEDFATYYCQQYRKIPWSFGQGTKLEIKR
B17: AB200-R1H26-R2Vk23 (Fab, V domains shown)
VH: QVQLVQSGAEVKKPGSSVKVSCKASGGSFSNYWMHWVRQAPGQGLEWMGATYRIHSDTFYNQKFKGRVTITADKSTSTAYMELSSLRSEDTAVYYCARGAIYHGYDVLDNWGQGTLVTVSS
VL: DIQMTQSPSSLSASVGDRVTITCRASQSISSYLNWYQQKPGKAPKLLIYATSNLQSGVPSRFSGSGSGTDFTLTISSLQPEDFATYYCQQFRKIPWTFGQGTKLEIKR
B18: AB200-R1H26-R2Vk24 (Fab, V domains shown)
VH: QVQLVQSGAEVKKPGSSVKVSCKASGGSFSNYWMHWVRQAPGQGLEWMGATYRIHSDTFYNQKFKGRVTITADKSTSTAYMELSSLRSEDTAVYYCARGAIYHGYDVLDNWGQGTLVTVSS
VL: DIQMTQSPSSLSASVGDRVTITCRASQSISSYLNWYQQKPGKAPKLLIYATSNIQSGVPSRFSGSGSGTDFTLTISSLQPEDFATYYCQQYRRLPWSFGQGTKLEIKR
B19: AB200-R1H26-R2Vk25 (Fab, V domains shown)
VH: QVQLVQSGAEVKKPGSSVKVSCKASGGSFSNYWMHWVRQAPGQGLEWMGATYRIHSDTFYNQKFKGRVTITADKSTSTAYMELSSLRSEDTAVYYCARGAIYHGYDVLDNWGQGTLVTVSS
VL: DIQMTQSPSSLSASVGDRVTITCRASQSISSYLNWYQQKPGKAPKLLIYATSNIQSGVPSRFSGSGSGTDFTLTISSLQPEDFATYYCQQYRRIPWTFGQGTKLEIKR
B20: AB200-R1H26-R2Vk26 (Fab, V domains shown)
VH: QVQLVQSGAEVKKPGSSVKVSCKASGGSFSNYWMHWVRQAPGQGLEWMGATYRIHSDTFYNQKFKGRVTITADKSTSTAYMELSSLRSEDTAVYYCARGAIYHGYDVLDNWGQGTLVTVSS
VL: DIQMTQSPSSLSASVGDRVTITCRASQSISSYLNWYQQKPGKAPKLLIYATSNIQSGVPSRFSGSGSGTDFTLTISSLQPEDFATYYCQQFRRLPWTFGQGTKLEIKR
B21: AB200-R1H26-R2Vk27 (Fab, V domains shown)
VH: QVQLVQSGAEVKKPGSSVKVSCKASGGSFSNYWMHWVRQAPGQGLEWMGATYRIHSDTFYNQKFKGRVTITADKSTSTAYMELSSLRSEDTAVYYCARGAIYHGYDVLDNWGQGTLVTVSS
VL: DIQMTQSPSSLSASVGDRVTITCRASQSISSYLNWYQQKPGKAPKLLIYATSNIQSGVPSRFSGSGSGTDFTLTISSLQPEDFATYYCQQYRKIPWSFGQGTKLEIKR
B22: AB200-R1H26-R2Vk28 (Fab, V domains shown)
VH: QVQLVQSGAEVKKPGSSVKVSCKASGGSFSNYWMHWVRQAPGQGLEWMGATYRIHSDTFYNQKFKGRVTITADKSTSTAYMELSSLRSEDTAVYYCARGAIYHGYDVLDNWGQGTLVTVSS
VL: DIQMTQSPSSLSASVGDRVTITCRASQSISSYLNWYQQKPGKAPKLLIYATSNIQSGVPSRFSGSGSGTDFTLTISSLQPEDFATYYCQQFRKIPWTFGQGTKLEIKR

Target: T1, extracellular domain of human BCMA
Assay: Octet BLI; Fab 200 nM

Row | Binder | Kd [nM]
1 | B1 | 2.04
2 | B2 | 1.62
3 | B3 | 1.7
4 | B4 | 1.29
5 | B5 | 2.08
6 | B6 | 2.17
7 | B7 | 1.69
8 | B8 | 2.35
9 | B9 | 3.23
10 | B10 | 1.55
11 | B11 | 3.72
12 | B12 | 3.02
13 | B13 | 1.62
14 | B14 | 2.1
15 | B15 | 1.27
16 | B16 | 2.24
17 | B17 | 2.28
18 | B18 | 1.62
19 | B19 | 2.04
20 | B20 | 1.46
21 | B21 | 2.33
22 | B22 | 2.68
